Positions count from the first letter of the chain named.

One data set deals with T1, GLP-2R H268^3.37A (Homo sapiens, UniProt O95838, H268A).
T1 sequence (O95838 1-553 H268A): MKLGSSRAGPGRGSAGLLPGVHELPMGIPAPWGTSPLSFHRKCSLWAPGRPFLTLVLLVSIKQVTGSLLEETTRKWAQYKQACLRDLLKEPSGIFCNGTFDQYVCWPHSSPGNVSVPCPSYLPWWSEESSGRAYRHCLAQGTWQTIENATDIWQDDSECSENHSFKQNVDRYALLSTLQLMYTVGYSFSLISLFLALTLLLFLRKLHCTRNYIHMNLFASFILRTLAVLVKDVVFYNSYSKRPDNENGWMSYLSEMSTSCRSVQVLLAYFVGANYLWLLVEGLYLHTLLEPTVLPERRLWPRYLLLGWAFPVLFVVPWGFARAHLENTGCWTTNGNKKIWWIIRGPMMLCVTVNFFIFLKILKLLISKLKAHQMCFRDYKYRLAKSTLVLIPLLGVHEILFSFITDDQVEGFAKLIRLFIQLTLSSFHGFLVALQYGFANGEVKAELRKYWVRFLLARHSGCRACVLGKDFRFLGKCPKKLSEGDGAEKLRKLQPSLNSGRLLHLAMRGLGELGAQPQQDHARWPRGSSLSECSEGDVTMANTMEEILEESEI
The data set can be described thus: cAMP accumulation, H268^3.37A. The conditions noted are these: Table S3, H268A; HEK 293T, 30 min, RT; mean ± SEM, n ≥ 3 in duplicate; read-out: cAMP Emax (% WT). Also on record: WT (1–553); expressed in transfected cells; HEK 293T (cAMP). Format: cell-based. The procedure:
(§1) HEK 293T cells were cultured in Dulbecco’s Modified Eagle’s Medium (DMEM) (Gibco, Waltham, USA) supplemented with 10% (v/v) fetal bovine serum (FBS) (Gibco) and 1% (v/v) sodium pyruvate (Gibco) at 37 °C, 5% CO2 in a humidified incubator. They were seeded onto 6-well cell culture plates and transiently transfected with different GLP-2R constructs using Lipofectamine 2000 transfection reagent (Invitrogen, Carlsbad, CA, USA). After 24 h, the transfected cells were seeded onto 384-well microtiter plates (3000 cells per well) in HBSS supplemented with 5 mM HEPES, 0.1% (w/v) bovine serum albumin (BSA) and 0.5 mM 3-isobutyl-1- methylxanthine, and stimulated with increasing concentrations of GLP-2 for 30 min at RT. Eu and Ulight were diluted by cAMP detection buffer and added to the plates separately to terminate the reaction. Plates were incubated at RT for 60 min before measuring the fluorescence intensity at 620 nm and […] by an EnVision multilabel plate reader (PerkinElmer, Boston, USA).

Another data set addresses T2, GLP-2R N334^ECL2A (Homo sapiens, UniProt O95838, N334A).
T2 sequence (O95838 1-553 N334A): T1 sequence (O95838 1-553 H268A) with A268H, N334A
Put plainly: cAMP accumulation, N334^ECL2A. Format: cell-based. On the set-up: GLP-2R (1-553) (WT); expressed in transfected cells; host or cells: HEK 293T. The conditions noted are these: Table S3, N334A; HEK 293T, 30 min, RT; mean ± SEM, n ≥ 3 in duplicate; read-out: cAMP Emax (% WT). The procedure: as §1

Another data set deals with dipeptidyl peptidase 4. The conditions noted are these: cited from earlier work. From the text:
GLP-2R belongs to class B GPCR subfamily, which is mainly expressed in the gut, pancreas and brain.[1] […] GLP-2 is encoded by the proglucagon gene and becomes active after post-translational processing by prohormone convertases. As a gastrointestinal hormone, it mainly regulates intestinal epithelial cell growth and functions that are crucial for digestion and absorption of nutrients.[2]

The target in data set [1] is GLP-2R R242^ECL1A (human) (UniProt O95838). Put plainly: radioligand binding; competition on transiently transfected COS-7 cells: unlabeled teduglutide 0.1 nM to 1 μM against 10–15 pM [125I]GLP-2(1–33, M10Y); 4 h, 4 °C; 50 mM HEPES pH 7.4, 1 mM CaCl2, 5 mM MgCl2, 0.5% BSA; three-parameter logistic fit.
The target in data set [2] is GLP-2R Y182^1.43A (human) (UniProt O95838). The description is as above.
The target of data set [3] is Human GLP-2R WT (1–553) (human) (UniProt O95838). The description is as above.
Data set [4] has as its target GLP-2R R344^5.40A (human) (UniProt O95838). The description is as above.
The target of data set [5] is GLP-2R K414^7.35 A (human) (UniProt O95838). The data set is described as above.

For the compound `CC[C@H](C)[C@H](NC(=O)[C@H](Cc1ccccc1)NC(=O)[C@H](CC(=O)O)NC(=O)[C@H](CCCNC(=N)N)NC(=O)[C@H](C)NC(=O)[C@H](C)NC(=O)[C@H](CC(C)C)NC(=O)[C@H](CC(N)=O)NC(=O)[C@H](CC(=O)O)NC(=O)[C@H](CC(C)C)NC(=O)[C@@H](NC(=O)[C@@H](NC(=O)[C@H](CC(N)=O)NC(=O)[C@H](CCSC)NC(=O)[C@H](CCC(=O)O)NC(=O)[C@H](CC(=O)O)NC(=O)[C@H](CO)NC(=O)[C@H](Cc1ccccc1)NC(=O)[C@H](CO)NC(=O)CNC(=O)[C@H](CC(=O)O)NC(=O)[C@H](C)NC(=O)[C@@H](N)Cc1c[nH]cn1)[C@@H](C)O)[C@@H](C)CC)C(=O)N[C@@H](CC(N)=O)C(=O)N[C@@H](Cc1c[nH]c2ccccc12)C(=O)N[C@@H](CC(C)C)C(=O)N[C@H](C(=O)N[C@@H](CCC(N)=O)C(=O)N[C@H](C(=O)N[C@@H](CCCCN)C(=O)N[C@H](C(=O)N[C@H](C(=O)N[C@@H](CC(=O)O)C(=O)O)[C@@H](C)O)[C@@H](C)CC)[C@@H](C)O)[C@@H](C)CC` [Human GLP-2 (1–33)], the values for the Emax at GLP-2R H268^3.37A and on GLP-2R N334^ECL2A were 118 ± 22.6% and 103 ± 2.9%, respectively. Also, the “inactivation by dipeptidyl peptidase 4 in vivo (in words)” value with dipeptidyl peptidase 4 is listed as “rapidly inactivated by dipeptidyl peptidase 4 in vivo”.

In the case of [^125I]GLP-2(1–33, M10Y) (peptide), the % Binding of WT in data set [1] was 5.1%; in data set [2] it was 3.2%; in data set [3], 99.7%; in data set [4], 3.5%; in data set [5], 13.9%.

As a reminder, the Emax is the greatest response seen or fitted, relative to the assay's reference.

These data come from article PMC7785020, “A unique hormonal recognition feature of the human glucagon-like peptide-2 receptor” (Cell Research, 2020).
